The data set in a line: label from the status in PepcDB records.
With “MAVDVPGIISPKTAEAASQLTDGIGGRAYLNSNGAILVTKIQLPSSTQVSNGTAYIYSGFSGGTESDIGFQYSDKYNVWKPYMKVGSKGQDQVQYLEGGSQFTNTKGFRPGSTVQLTIYKNLNGNTRATYWGTNNAGYNGRLISEISKTNVGSISKWKALATVATTGSRQSIKSNFSTSFTNITIDNKAITPVIDTQDFAKVTVSGNSVSLSVVKNLEHHHHHH”, the protein production result is reported as “not failed”. Next, “MAVECIKDKVTRYPERASYSDEDLVAMLDRNFTCTVSFIDGGIPYAIPMMLASEGKTIYLHGSMKSRIYGILKTGQLIAISLLEINGIVLAKEIKNNSINYVSALIFGRPYEIDDTEKKIEVFRLLTEKLVKGRRDNSIKPSYEDLNGVFVFAVKPETFSMKARTGPPHDTSTDDIWSGVLPIQHTISEAGENAPEYVKSLYGKRIFI”: “not failed”.

As to “MAVERPGYLRIAAELRKRISSGEFGIGDQIPTLPALAEEYGVLETTVRNALALLRNEGLIETRARAGTRVRERPPIHRLTADRYRNKAGVPSTPFTRDQGIGWSEYRLDKKYEQVEATMELAALFECEVGEPLLARHFVFHDNDQPTQMSVSYLRWSDVEGSPVADPIHEPWPGGTQAQLASIGIRVTEITESFTCGMPTDHESKTLKIGSGVPVLRYTRRHIAEDGRIVEVAHPIVRRGDTTVVDFVIKLD”, the protein production entry was “failed”. Then “MAVGLPLLLSSMAMPAQAAPAPEAPGNVAGVAKKNLDPGSYKDGRYMVVLAEKPAATYDGGTAGLAPTKPEEGKKLDVDSAEVKQYQQHLQQKQQEVAQQENVTIKRDFTTAVNGFSATLTADQAINLAKDPKVLMVAPDTQYAPDYSTTDFLKLSGPNGTWATQYGGQDNAGKGTVVGVIDTGYTPSNPFFAGEPVGPLVGNPQVGVPYRTADGKIAMLKADGDTFVGECQPGTDTGADYDGSACNSKVLSTHYFADAFLETVPPENRAPEEVISPVDVDSHGTHTASTAAGNANVDAVVDGRSFGTTSGIAPAAKLSVYKVCWEDTDPATGGCYGSASVDAIEQAILDGVDVLNYSISGSTTSTTDPVSLAFLSAASAGIFVATSAGNSGPTASTVNHGAPWLTTVAATSFSQELQGTVEFSDGSKFRGASIMNREVTGAGVVLSTNAASGEGNAALCAPGSLDPAKVAGKVVVCDRGVVDRTAKSAEVLRGGGVGMILVNLTDSSLDTDKHIIPTVHVNPPATQTIKDKVTANPAITVSLLNRDTTGLPAEAQPQIAGFSSRGPLLATDSDLLKPDVSAPGVAILAGVSPIGTGGDNFGFLSGTSMASPHVAGFGALILAKNPQWSPATVKSAMMTTAGPVKLANGAVNKDVFATGAGQVDPAKVLSPGLVYDATTEDYLKFIQGTGMDLGMEGLGTTQARDMNVPSFALGNLAGKIEVTRTLTALTPGTYRASVNVPGVNVKVTPSVLTFGAPGEKKTFKVQFENNNAALGKFAMGSLNWQGANKTVTSPIAVRPQSVIADKALAFTGTGPNGSGTINITSGTNLPVGVTIDGLSKADSSAVELVPGPFAGETNASNYVKKVTVGEGSALAKFSVISSNEAADFDMLVVTPSGQQLPAATASASETLSVPNPAAGDYYVYANLYASPNNQATKATVDAAVLGANQGNASVTPNPIRLANGKTGQISLNWKNLEPGSYIGRLTFAGTSEPSFVTVLVNPGGAVVVPDEEDPKKDKKDKKHRGKIRADEPTQSNNAG”, with “failed”; and “MAVKIQTPAGTIEITNDVIATVVGGAATDIYGIVGMASKNQIKDNLNDILRRENYSRGVVVRQEDNGIAVDVYTIVSYGTKISEVSRNVQEKVKYNLETLLGVTANSVNVFVQGVRVLPDLEHHHHHH”, with “not failed”; and “MAVPPVEMYSGSFWNRMRKPLPLRTQVIRFTVVFVIVSFILAVALQITHERMPDPKVTKPLPDLGFELLTKISFLSVVTDVLIAFLSLLSFFTLWKLYLLHRHCVGSGEPELPCNIPGVSRFFLSVWLCKENCRIELRNIHTIAWIRFITSYALLLLFRSLVIVMTSMPTPVDKCQDPPKIENPVKNVILTVLTAGGGSIHCGDLMYSGHTVILTLHLMFHWIYGAMVHWSFRPVVTVVAIFSYYCIVASRSHYTDDVLVAIYLTIATFIAVGHNADGAPWQLQLFIRWLPCCGANSREVTEDSQPVMVAFKSEAVDELRERDDSAGLSGEVSTNEVVSHHHHHH”, with “failed”. With “MAVSHSVKERTISENSLIILLQGLQGRVTTVDLRDESVAHGRIDNVDAFMNIRLAKVTYTDRWGHQVKLDDLFVTGPNVRYVHIPDDVNITSTIEQQLQIIHRVRNFGGKGQGRWEFPPKNCK”, the protein production result is “failed”. Next, “MAVTHRTRRPLRAANKTTNAASLGATCSRQQRARLVHCVGRRTNCLAPALCSPRFTAIPRWSSNAMSMSLADARYLFNRILGLIHRSMASMRTRGWRATWQRIRVHTQAPPVALGTPLWLPQPAPFAAFALPHSAAPRVSVVIPVYNHIAHTLACLRSLAAHPPLVDVEIIVVDDGSSDATAEQLPQVAGLHYHLRASNGGFIAACNDGIALARGDFVVLLNNDTIPQPGWLDRLIDTFAQHPSAGLIGAQLVYPDGRLQESGGVVFGDGSAWSYGRFESSDDPRYAYVRAMDYCSGAAIALPRTLLQTLGGLDRRYMPAYYEDTDLAFAVRAAGYQVLVQPASVVVHDEGTSNGTDTRTGVKAYQVRNQNVFAEKWQQALKAQLPVGTVPGPALLHRGQRQVLILDECVPQPDRDSGSLRQFNLIRLLREEGAHVVFVPTRREHAGRHTQALQQLGAEVWYAPFLEGVGSWLRTHGARFAVVLLVRHHVAHACLPLLKQYAPQARTLFDTVDLHYLRERRGAEVAGDANLLHGAERTRLRELEIMAATDVTLLVSAAEQAQLRTDAPHIRTALLSNLHDVAGSGHSFAQRRDLVFVGGFRHPPNVDAVQWFISAIFPQVRAQLPDVVFHCIGADLPDALKLLADECTGVQLHGHVPDLVPFMDNARIAVAPLRFGAGVKGKINLSMAHGQPVVGTTCAVEGMHLRDGEDVCVADDANAFAAAIVRLYQDAALWQRLADNGLRNVAEYFSLDAARATVRALFIAE”: “failed”; “MAVWLKLSLIVLCGCLSCWVGSVWAQPPLPGFAALSAGQYPLADRQLSQAIAHGKATAALYGNRCWVRLSLERYEEAIKDCSVALDLQPHEPETWLNRGLAYYRQGQSQAAIADFDQLLQQSPTDYRAYYNRGLAYLDLAQPEQAIADFQQALERLPATEIGAAVDLHTDRCMGELHRAQPGPAVSACSQALELQPSAARARYLRALAYWQLHQPQAAIADLRQACDAFAQAGATVQLDRARQLLQHWQQQSSLVAQAPRLQSKNWPGAVTYAMDLANCHDRSPLNELEFCCDRAFQQC”: “failed”. In the case of “MAWNTNLRWRLPLTCLLLQVIMVILFGVFVRYDFEADAHWWSERTHKNLSDMENEFYYRYPSFQDVHVMVFVGFGFLMTFLQRYGFSAVGFNFLLAAFGIQWALLMQGWFHFLQDRYIVVGVENLINADFCVASVCVAFGAVLGKVSPIQLLIMTFFQVTLFAVNEFILLNLLKVKDAGGSMTIHTFGAYFGLTVTRILYRRNLEQSKERQNSVYQSDLFAMIGTLFLWMYWPSFNSAISYHGDSQHRAAINTYCSLAACVLTSVAISSALHKKGKLDMVHIQNATLAGGVAVGTAAEMMLMPYGALIIGFVCGIISTLGFVYLTPFLESRLHIQDTCGINNLHGIPGIIGGIVGAVTAASASLEVYGKEGLVHSFDFQGFNGDWTARTQGKFQIYGLLVTLAMALMGGIIVGLILRLPFWGQPSDENCFEDAVYWEMPEGNSTVYIPEDPTFKPSGPSVPSVPMVSPLPMASSVPLVP”, the protein production result is “not failed”. Turning to “MAYATGITFASRSILPICSRTFLSPLRVASLLVFPEKSSATFFRRVQVPHLFSTSTTTLFSSVKCSIHSTSSPETENQAVFRPNVVDILEERGLLESITSENLRSACSDPKVAPLRVYCGFDPTAESLHLGNLLGIIVLSWFQRCGHQAVGLIGGATGRVGDPSGKSLERPELDADTLEKNIAGITKIIIKILGSNPSPGGSYVIFNNYDWWKDMTMLDFLNKVGRFARVGTMMAKESVKKRLESEQGMSYTEFTYQLLQAYDFLHLFKNEGINVQIGGSDQWGNITAGTDLIRKILQAEEAAYGLTFPLLLKNDGTKFGKSEDGAIWLSPSMLSPYKFYQYFFSVPDVDVIRFLKTLTFLSLDEIKILEDQMSKPGYVPNTAQIKLAEEVTRFVHGEEGLKEAIKATEALRPGAETKLDWNLIERIAEDIPSCSLPIDRVSGLSIVDLSVSAGLFESKSAARRMLKQGGFYMNNERVDDENKRVDEEDIVEGRGLVLSAGKKNKVVVRIS”, the protein production entry is on record as “failed”. Then “MAYDLWYWDGIPGRGEFVRLALEAGKIPYRDRAREPGEDMLADMRRRRDTAPFAPPYLVADGMTIAQTANILLFLGVEHGLAPPDRAGRLWVNQLQLTIADLTAEAHDVHHPVAAGLYYEDQQDVALRRAADFRETRMPKFMQYFEQALDRPGGWLTDMGRWSYADLSLYHVVEGLLHAFPRRMRTLMHRYPRLMTLHARVAELPELRGYLASDRRLPFGDGIFRHYPELDGA”, with “failed”; and “MAYEDLSKKIIAGVGGKDNVKSVVHCTTRLRFKLKDESATHTDELKDTDGVITVVQSGGQYQVVIGNEVADVYETLIRVGGFADGGSVPDDYEDGEKMSIFDRFIDLISGIFTPMLGVLCAAGMIKGFVAMFVAFNWLSENSGTYKILYSIGDGFFYFLPIVLGLTAAKKFHVDQFVGMAIGMALCYPSIVALNSSKTVLSTLFSGSIFESQIHATFLGIPVVMMSYTSSVIPIILAVWFASKVQAFAKRIVPTVVKTFLVPFITLLIAVPITFLIIGPVASWLSDGISTVCVAIYNFSPIVAGLVMGAFWQVFVIFGVHWGFVAVMMANLASQGFDPILGLSLAASFAQTGVVLGILLQTKNQKTRGIALPAFISGIFGVTEPAIYGLTLPRKRPFILSCVAASIGGGIIGFAGTKMYMMGGMGLFSIPAAINSKTGVDGSVYGLIIAMAIAAVLGFALQMLFGYKSVDSNDKQTKVVETAATADPVMAGGVSVETTPTGAATKVEPNVTYNAATKLSSPETGQIIPLSEVKDEVFSSGAMGKGVAIEPTDGVLYAPADGEVALVFPTGHAVGLNTTDGAEILMHIGMDTVELEGKGFETLVQKGETVKAGQPLVKFDIEAIKAAGYPVTTPMVVTNSKNYHDVKLAFPAATEVNATEPLLQLN”, with “failed”. Take “MAYEQFAYVYDELMQDVPYPEWVAWVLEQVEPGKRIADIGCGTGTATLLLADHYEVTGVDLSEEMLEIAQEKAMETNRHVDFWVQDMRELELPEPVDAITILCDSLNYLQTEADVKQTFDSAARLLTDGGKLLFDVHSPYKMETLFNGKTYATHAEQSSYIWFADPGEEPLSVVHELTFFIEGEDGRYDRVDETHHQRTYPPEQYITWLREAGFRVCAVTGDFKSDAPTETAERIFFVAEKI”: the protein production entry is “not failed”.

The values are drawn from a protein production outcome set (Wang et al. 2014).
